Assay results as given in patent US20170174769A1 (Regeneron, published 2017).
Read-outs that look alike come from different tables or passages of the source.

T1: full-length human KLB on HEK293/hKLB/SRE-luc cells (human, UniProt Q86Z14 1-1044)
T1 construct: amino acids 1-1044 of NP_783864.1
T1 sequence: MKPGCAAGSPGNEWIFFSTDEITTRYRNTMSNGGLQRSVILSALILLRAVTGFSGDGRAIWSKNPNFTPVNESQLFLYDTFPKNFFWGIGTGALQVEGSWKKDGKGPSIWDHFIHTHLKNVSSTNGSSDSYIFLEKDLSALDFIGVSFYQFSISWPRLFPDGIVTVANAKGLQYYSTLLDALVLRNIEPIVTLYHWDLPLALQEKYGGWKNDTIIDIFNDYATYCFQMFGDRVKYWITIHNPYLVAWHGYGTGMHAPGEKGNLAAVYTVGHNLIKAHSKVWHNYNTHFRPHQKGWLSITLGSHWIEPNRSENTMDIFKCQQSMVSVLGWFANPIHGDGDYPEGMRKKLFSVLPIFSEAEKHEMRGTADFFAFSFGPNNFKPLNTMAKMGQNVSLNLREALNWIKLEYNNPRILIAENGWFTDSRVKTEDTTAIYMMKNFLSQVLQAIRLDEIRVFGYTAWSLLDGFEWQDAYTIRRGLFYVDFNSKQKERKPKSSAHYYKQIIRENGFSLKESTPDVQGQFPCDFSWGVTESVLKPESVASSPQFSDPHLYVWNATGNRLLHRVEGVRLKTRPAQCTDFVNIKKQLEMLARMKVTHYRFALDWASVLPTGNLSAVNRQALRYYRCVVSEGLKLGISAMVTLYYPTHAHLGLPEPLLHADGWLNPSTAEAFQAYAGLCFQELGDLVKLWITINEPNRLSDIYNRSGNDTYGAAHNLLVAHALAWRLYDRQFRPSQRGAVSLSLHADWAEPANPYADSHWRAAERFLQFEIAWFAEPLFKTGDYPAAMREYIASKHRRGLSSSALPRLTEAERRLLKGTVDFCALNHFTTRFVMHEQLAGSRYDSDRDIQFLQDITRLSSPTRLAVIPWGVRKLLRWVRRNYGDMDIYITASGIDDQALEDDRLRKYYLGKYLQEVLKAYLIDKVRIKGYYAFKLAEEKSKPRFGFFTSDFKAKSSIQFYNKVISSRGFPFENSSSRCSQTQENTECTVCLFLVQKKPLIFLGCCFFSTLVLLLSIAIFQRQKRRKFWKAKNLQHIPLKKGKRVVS


Key:
[1] = target: T2, cell-surface human FGFR1c (amino acids 1-731 of NP_075594) with cell-surface human KLB on … (human, UniProt P11362 22-822); assay: cell-based or functional assay
[2] = target: T3, human KLB and human FGFR1c co-expressed on HEK293/hKLB/hFGFR1c/SRE-luc cells (human, UniProt Q86Z14 1-1044; P11362 22-822); assay: cell-based or functional assay
[3] = target: T2, cell-surface human FGFR1c (amino acids …); assay: cell-based or functional assay; remark: listed apart in the source
[4] = target: T3, human KLB and human FGFR1c co-expressed …; assay: FACS on stable HEK293 cells
Experimental: (§1) To determine binding specificity of the monoclonal anti-KLB/FGFR1c antibodies, the antibodies were tested in a fluorescence-activated cell sorting (FACS) binding assay to cell lines expressing human FGFR1c, human KLB, and both human FGFR1c and human KLB. HEK293 cell lines were generated that stably express full-length human FGFR1c (hFGFR1c; SEQ ID NO:433) or full-length human KLB (hKLB; SEQ ID NO:434) or both human FGFR1c and human KLB, along with a luciferase reporter [SRE (serum response element)-luciferase, SA Bioscience, #CLS-010L]. The resulting cell lines, referred to as HEK293/hFGFR1c/SRE-luc, HEK293/hKLB/SRE-luc, and HEK293/hKLB/hFGFR1c/SRE-luc, respectively, were maintained in DMEM supplemented with 10% FBS, NEAA, penicillin/streptomycin, 1 μg/mL puromycin and […] hygromycin B, 1 μg/mL puromycin and 500 μg/mL G418, or all three antibiotics.
(§2) For the FACS analysis, HEK293 parental, HEK293/hFGFR1c/SRE-luc, HEK293/hKLB/SRE-luc, and HEK293/hKLB/hFGFR1c/SRE-luc cells were dissociated and plated onto 96-well v-bottom plates at 5 x 10⁵ cells/well in PBS containing 1% FBS. […] Cells were filtered and subsequently analyzed on a Hypercyte Flow Cytometer (Intellicyt Corp.). Unstained and secondary antibody alone controls were also tested for binding to all cell lines. The results were analyzed using FlowJo version 9.52 software and geometric mean (Geom. Mean) of fluorescence for viable cells was determined. Geom. mean of fluorescence for each antibody was then normalized to Geom. mean of unstained cells to obtain relative binding of antibody (binding ratios) per each cell type.

[5] = target: T1, full-length human KLB on …; assay: FACS on stable HEK293 cells
Experimental: as §1, §2

[6] = target: T4, full-length human FGFR1c on HEK293/hFGFR1c/SRE-luc cells (human, UniProt P11362 22-822); assay: FACS on stable HEK293 cells
T4 construct: amino acids 1-733 of NP_075593
T4 sequence (P11362 other isoform, or with tags, fused parts or gaps limits assumed): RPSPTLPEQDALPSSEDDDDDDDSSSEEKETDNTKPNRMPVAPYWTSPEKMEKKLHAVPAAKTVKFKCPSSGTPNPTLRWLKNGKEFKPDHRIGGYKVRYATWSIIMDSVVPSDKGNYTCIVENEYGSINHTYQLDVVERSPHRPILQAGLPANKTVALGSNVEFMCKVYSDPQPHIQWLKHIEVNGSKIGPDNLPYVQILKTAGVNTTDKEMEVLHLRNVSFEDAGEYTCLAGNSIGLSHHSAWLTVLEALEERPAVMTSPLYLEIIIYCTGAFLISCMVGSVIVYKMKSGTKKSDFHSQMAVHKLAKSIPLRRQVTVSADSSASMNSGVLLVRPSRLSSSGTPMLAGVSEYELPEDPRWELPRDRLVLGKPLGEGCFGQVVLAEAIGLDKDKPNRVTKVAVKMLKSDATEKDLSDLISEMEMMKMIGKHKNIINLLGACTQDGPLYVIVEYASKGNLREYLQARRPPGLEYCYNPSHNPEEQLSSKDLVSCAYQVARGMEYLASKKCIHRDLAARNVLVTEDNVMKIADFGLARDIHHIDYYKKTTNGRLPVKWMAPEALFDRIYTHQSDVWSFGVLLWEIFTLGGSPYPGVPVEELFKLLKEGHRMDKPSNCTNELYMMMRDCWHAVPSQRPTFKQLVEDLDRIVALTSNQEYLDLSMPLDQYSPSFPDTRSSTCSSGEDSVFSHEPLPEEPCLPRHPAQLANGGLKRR
Experimental: as §1, §2

[7] = target: T3, human KLB and human FGFR1c co-expressed …; assay: FACS on stable HEK293 cells, 965 nM
Experimental: For the FACS analysis, HEK293 parental, HEK293/hFGFR1c, HEK293/hFGFR1c/hKLB, and HEK293/mFGFR1c/mKLB cells were dissociated and plated onto 96-well v-bottom plates at 0.5×10⁶ cells/well in 2% FBS/PBS. […] Control mAb2 was tested at a concentration of 965 nM. After primary protein incubation cells were washed and incubated with 3.75 μg/mL fluorescently conjugated secondary antibodies for 30 minutes at 4° C. Cells were filtered and analyzed on Accuri™ 6 Flow Cytometer. Unstained and secondary antibody alone controls were also tested for all cell lines. The results were analyzed using FlowJo version 9.52 software and geometric mean (Geom. Mean) of fluorescence for viable cells were determined. Geom. mean of fluorescence for each antibody was then normalized to Geom. mean of unstained cells to obtain relative binding of antibody (binding ratios) per each cell type.

[8] = target: mouse KLB and mouse FGFR1c co-expressed on HEK293/mKLB/mFGFR1c/SRE-Luc cells (mouse); assay: cell-based or functional assay

% Activation [1] [%]	EC50, SRE-luc activation [1] [nM]	IC50, inhibition of 1 nM 6His-hFGF21 [2] [nM]	Maximum Inhibition (%) [2] [%]	% Activation [3] [%]	EC50, SRE-luc activation [3] [nM]	binding ratio to unstained cells [4] [fold]	binding ratio to unstained cells [5] [fold]	binding ratio to unstained cells [6] [fold]	MFI Ratio to unstained cells [7] [fold]	EC50, SRE-luc activation without ligand [2] [nM]	Maximum Activation (%) [2] [%]	Maximum Activation (%) without ligand [8] [%]	Maximum Inhibition (%) of 0.8 nM mFGF21 [8] [%]	Binder
0.7	47	2.2	36	1.4	> 10	6	1	5	5					H1H8900P (antibody, V domains shown, H1H Fc prefix (human Fc)) VH: QVQLVESGGGVVQPGRSLRLSCVASGFTFSSYGMHWVRQAPGKGLEWVAVISFDGSNKYYADSVKGRFTISRDNSKNTLYLQMNSLRPADTAVYYCAKDRSNYYYFGMDVWGQGTTVTVSS VL: DIVMTQTPLSLPVTPGEPASISCRSSQSLLDSDDGNTYLDWYLQKPGQSPQLLIYTLSYRASGVPDRFSGSGSGTDFTLKISRVEAEDVGVYYCMQRIEFPLTFGGGTKVEIK
			10			4	4	5						H4H8870P (antibody, V domains shown, human IgG4 Fc (H4H prefix)) VH: EVQLVESGGGVVRPGGSLRLSCAASGFKFDVYGMSWVRQLPGKGLEWVSGISWTGGSSGYADSVKGRFTISRDNGKKSLYLQMNSLRAEDTALYYCTREEDYWGQGTLVTVSS VL: not shown
		0.19	74	0.8	0.15	46	15	1		0.29	0.6			H2aM8092N (antibody, V domains shown, mouse IgG2 Fc (H2aM prefix); also called H2M8092N) VH: QVQLQESGPGLVKPSETLSLTCTVSGGSISSYYWSWIRQPPGKGLDWIGHIYYSGTTYYNPSLKSRVSISLDTSKNQFSLKLSSVTAADTAVYYCARHLRGYSSGREFDYWGQGTLVTVSS VL: DIQMTQSPSSLSASVGGRVSLTCRASQSIFSYLNWYQQKPGKAPKLLIYAASNLQSGVPSRFSGSGSGTDFTLTISSLQPEDFATYSCQQSYNIPYTFGQGTKLEIK
						8	1	1				3	50	H1H8897P (antibody, V domains shown, H1H Fc prefix (human Fc)) VH: QVQLVESGGGLVKPGGSLRLSCAAAGFTFSDYYMSWIRQAPGQGLEWVSYISPSGSTTYYADSVQGRFTISRDNAKSSLYLQMNSLRAEDTAVYYCARTGIQLWSVYFDYWGQGTLVTVSS VL: not shown
						8	1	1				2	29	H1H8898P (antibody, V domains shown, H1H Fc prefix (human Fc)) VH: QVQLVESGGGLVKPGGSLRLSCAASGFIFSDYYMSWIRQAPGKGLDWISYISPSGSTIYYADSVKGRFTISRDNAKNSLYLQMNSLRADDTAVYYCARTGIQLWSVYFDYWGQGTLVTVSS VL: EIVMTQSPATLSVSPGERATLSCRASQSVGSNLAWYQQKPGQAPRLLIYGASTRANGIPARFSGSGSGTEFTLTISGLQSEDFAVYYCQQYNNWPTFGQGTKLEIK
						37	8	1					90	H2aM8091N (antibody, V domains shown, mouse IgG2 Fc (H2aM prefix); also called H2M8091N) VH: QVQLVQSGADMKKPGASVKVSCKASGYTFTTYGINWVRQAPGQGLEWMGWISAYSGITNYAQSFQGRVTMTTDTSTSTAYMELRSLRSDDTAVYYCARGGYNWATGDYFDYWGQGTLVTVSS VL: DIQMTQSPSTLSASIGDRVTITCRASQSISSWLAWYQQKPGKAPKFLIYKASSLASGVPSRFSGSGSGTEFTLTISSLQPDDFATYYCQQYDSYSPYTFGQGTKVEIK
						32	14	2				2	16	H4H8880P (antibody, V domains shown, human IgG4 Fc (H4H prefix)) VH: EVQLVESGGGVVQPGGSLRLSCAASGFTFSLYAMSWVRQAPGKGLEWVSAISGSAHGAYYADSVKGRFTISRDNSKNSLYLQMNSLRAEDTAIYYCAKDLVIAVAGTFDYWGQGTLVTVSS VL: DIQMTQSPSSLSASVGDRVTITCRASQIISTYLNWYQQKPGKAPKILIYTASSLKSGVPSRFSGSGSGTDFTLTISSLQPEDFATYYCQQTYSSPRFTFGPGTKVDIK
